B1: ICR-1.1: anti-ICAM-R monoclonal antibody, IgG2a, domain 1, ATCC HB 11053 (antibody, V domains shown)
VH: QVQLQQSGAELAKPGASVKMSCKASGYTFTVYWMHWVKQRPGQGLEWIGYINPNTDYTEYNQRFQDKATLTADKSSSTAYMQLSSLTSEDSAVYYCARWGGNSYGLDYWGQGTSVTVSS
VL: QIVLTQSPALMSASPGEKVTMTCSASSSVSYIYWYQQKPRSSPKPWIYLTSNLASGVPARFSGSGSGASYSLTISIMEAEDAATYYCQQWKSIPLTFGAGTKLELK
B2: ICR-8.1: anti-ICAM-R monoclonal antibody, IgG1, domain 1, ATCC HB 11232 (antibody, V domains shown)
VH: EIQLQQTGPELVKPGASVKISCKASGYSFTDCIILWVKQSHGKGLEWIGKINPYFGTTTYNLKFKGKATLTVDKSSSTAHMQLNSLTSEDSAVYYCARKEAYPDAMDYWGQGTSVTVSS
VL: DAVMTQTPLSLPVSLGDQASISCRSSQSLVHSNGDTYLHWYLQKPGQSPQLLIYKVSNRFSGVPDRFSGSGSGTDFTLKLSRVEAEDLGVYFCSQSTHVPYTFGGGTKLEIK

Columns and labels:
[1] = target: T1, Protein 3 (ICAM-R domains 1-3 fused to ICAM-1) (Homo sapiens, UniProt P05362+P32942, A326V/A340P/A352Q/A353P/D347N/D369N/D382A/E323K/E366P/E384Q/F374S/F385L/G339H/H327S/L386I/M337E/N363K/P354L/P357R/Q343K/Q356P/Q361L/Q393E/R388K/S322R/S330T/S335K/S367E/S390Q/S391T/T325E/T331E/V342A/V392R); assay: FACS binding to COS cell transfectants; conditions: antibody 5.0 ug/ml
T1 construct: domains of ICAM-R (residues 1 to 291) fused to ICAM-1 (residues 317 to 532); ICAM-1 residues 317 to 532 (fusion partner in the same polypeptide); expressed in transfected cells; host or cells: COS cells, plasmid pcDNAAmp.RD1-3.1D4-5
Source text: FIG. 7 is a diagram of the chimeric proteins whose construction is outlined below. Protein number 1 contains the amino-terminal immunoglobulin-like domain of ICAM-R (residues 1 to 93) fused to ICAM-1 (residue 117 to 532). Protein number 2 contains the first two amino terminal immunoglobulin-like domains of ICAM-R (residues 1 to 190) fused to ICAM-1 (residues 216 to 532). Protein number 3 contains the first three immunoglobulin-like domains of ICAM-R (residues 1 to 291) fused to ICAM-1 (residues 317 to 532).
For the anti-ICAM-R monoclonal antibody binding assay, COS cells transfected with constructs encoding the ICAM-R chimeric proteins or control constructs were removed from the plates by EDTA treatment and aliquoted at 2.5×10^5 cells per well in a 96-well round bottom plate. Cells were washed 3 times with ice cold washing buffer (PBS containing 1% BSA and 0.05% sodium azide). Anti-ICAM-R monoclonal antibody was applied at 5.0 ug/ml in 50 ul final volume and incubated on ice for 30 minutes. Cells were then washed three times with cold washing buffer and incubated with the FITC labeled secondary antibody (sheep anti-mouse IgG F(ab′)2) at a 1:100 dilution on ice for 30 minutes in dark in 50 ul final volume. After the incubation, cells were washed again for three times in the ice cold washing buffer and resuspended in 200 ul of 1% paraformaldehyde. The samples were analyzed on a Becton-Dickinson FACScan instrument. Results of the assay are given below in Table 5 as percent positive COS cell transfectants, wherein MOPC 21 (IgG1) and UPC 10 (IgG2a) are isotype matched controls, 18E3D is an ICAM-1 specific monoclonal antibody and ICR-1.1 to ICR-9.2 are ICAM-R specific monoclonal antibodies. The reactivities of monoclonal antibodies ICR-1.1 through ICR-9.2 were assayed in a different experiment than monoclonal antibodies ICR-12.1 through ICR-17.1.

PBMC = PBMC activation markers, immobilized antibody plus low dose anti-CD3; format: cell-based, human; conditions: immobilized antibody 10 μg/well plus anti-CD3 0.025 μg/well
Experimental: Ten μg of anti-ICAM-R monoclonal antibodies ICR-1.1 or ICR-4.2 (or control monoclonal antibodies to HLA Class I; Serotec, Oxford, England) were added per well of 96-well flat bottom tissue culture plates either in the presence or absence of anti-CD3 antibody initially added at 0.025 μg/well and washed to remove unbound antibody. Freshly obtained PBMC were immediately added (2×10^5 cells/well). The cells were then incubated for a total of either 16 hours or 3 days at which time the cells were removed and washed 2 times in ice cold FACS buffer. Two×10^5 cells were then resuspended in 50 μl ice cold FACS buffer, and 5 μl of FITC-conjugated anti-CD69, anti-transferrin receptor, anti-IL-2 receptor antibody or anti-FITC conjugated control Ig was added. The cells were incubated at 4° C. for 30 minutes and then washed 2 times in 0.5 ml ice cold FACS buffer. After the final wash the cells were resuspended in 0.5 ml FACS buffer and fluorescence determined by FACScan analysis. […] The effect was more pronounced with antibody ICR-1.1. Similar results were also obtained after 16 hours in culture.

human basophils = assay: Basophil histamine release; format: cell-based; conditions: added simultaneously with anti-IgE 0.01 μg/ml
Source text: Basophils were obtained at low purity by dextran sedimentation of erythrocytes in EDTA-anti-coagulated peripheral venous blood, at slightly enriched percentages from mononuclear cell layers of density gradient Percoll centrifugation preparations, and at high purity (>70%) from leukophoresis packs following clutriation and density gradient centrifugation. In the assays, polyclonal goat anti-human IgE and ICAM-R monoclonals antibodies ICR-1.1, ICR-2.1, ICR-4.2 and ICR-8.1 were used alone or in combination. The […] was used to induce histamine release which was quantitated using an automated fluorometric assay after a 45 minute incubation with secretagogue. LTC4 production was measured by radioimmunoassay as previously described in Schleimer et al., J. Immunol., 143:1310-1317 (1989), while IL-4 in cell supernatants was assayed using the IL-4 Quantikine ELSA kit (R&D Systems, Minneapolis, Minn.). Basophil adhesion to unstimulated or IL-1 treated monolayers of human umbilical vein endothelial cells was examined as previously described in Bochner et al., J. Clin. Invest., 81: 1355-1360 (1988) and Bochner et al., J. Immunol., 142: 3180-3186 (1989), in the presence or absence of ICR-2.1 monoclonal antibody. […]

T1 sequence (P32942+P05362 fused with the stated changes): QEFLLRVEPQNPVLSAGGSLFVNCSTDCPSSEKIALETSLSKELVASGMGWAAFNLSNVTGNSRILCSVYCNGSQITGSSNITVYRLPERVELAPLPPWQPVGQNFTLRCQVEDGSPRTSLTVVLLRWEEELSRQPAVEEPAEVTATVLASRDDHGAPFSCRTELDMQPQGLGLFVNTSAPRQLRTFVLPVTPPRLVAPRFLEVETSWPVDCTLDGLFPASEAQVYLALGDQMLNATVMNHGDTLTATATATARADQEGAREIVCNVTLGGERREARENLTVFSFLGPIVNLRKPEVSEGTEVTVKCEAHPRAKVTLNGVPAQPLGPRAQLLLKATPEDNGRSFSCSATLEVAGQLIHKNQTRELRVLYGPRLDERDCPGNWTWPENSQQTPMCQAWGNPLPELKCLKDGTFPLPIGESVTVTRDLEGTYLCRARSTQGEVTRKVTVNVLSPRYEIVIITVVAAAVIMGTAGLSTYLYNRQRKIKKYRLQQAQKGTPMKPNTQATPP

Row | Molecule | percent positive COS cell transfectants, Protein 3 [1] | PBMC activation marker expression after 16 hours (PBMC) | PBMC activation marker expression after 3 days (PBMC) | anti-IgE-induced histamine release (human basophils)
1 | B1 | 52.71% | induced expression of CD69, but not the transferrin receptor | significant upregulation of both the transferrin and IL-2 receptors | –
2 | B2 | – | – | – | neither ICR-8.1 nor the domain 2-specific monoclonal antibody ICR-4.2 had any significant potentiating activity
